{
  "source": "patent US20240324599A1",
  "about": "“PESTICIDAL ENZYMES FOR USE ON NEMATODES, INSECTS, AND MOLLUSKS” (priority 2023, published 2024)",
  "format_in_all_cases": "in vivo",
  "key": {"[1]": {"test_system": "Btk resistant Diamondback moth", "experiment": "Diet-surface overlay (DSO) bioassay", "settings": "Table 47, Btk resistant", "experimental": "(§1) Diet-surface overlay bioassays are conducted with artificial diet mixes without antibiotics in 1.5 cm^2 cell bioassay trays(s). Artificial diets are commercially available from Southland Products Inc. Diets were prepared by dispersing 0.5 mL of molten diet to each 1.5 cm^2 cell. After solidification, 0.1 mL enzyme treatments were dispersed on top of diet in each cell and the tray was gently rocked in an orbital shaker to spread the liquid uniformly over the diet surface. Trays were placed under clean airflow until the surface of each cell was uniformly dried. One or two 16-cell sections were used per treatment (the number in larvae treated was 16 or 32).\n(§2) One healthy first instar larva was placed into each treatment cell, each 16-cell section was covered with a re-sealable lid and incubated at 27° C. and light-dark period of 16:8 hrs. After 7 days, and according to the species, the number of individuals in the following developmental categories was recorded.\nDiamondback moth (Plutella xylostella): Dead Larva (lack of movement), Larva Stage I (≤50% relative size), Larva Stage II (100% relative size, full size), Early Pupa (light green color), Late Pupa (light-dark brown color), and Adult.\n(§3) Negative/untreated controls were treated with filtered water and positive controls were treated with lethal doses of Bacillus thuringiensis subsp. Kurstaki (Btk) spores at 1000 ppm.\nHowever, both neutral proteases reduced the number of individuals reaching adult stage."}, "[2]": {"test_system": "Fall armyworm (Spodoptera frugiperda)", "experiment": "Diet-surface overlay (DSO) bioassay", "settings": "number of individuals", "experimental": "as §1, §2, §3"}, "[3]": {"test_system": "soybean cyst nematode (SCN, Heterodera glycines)", "experiment": "Controlled environment soybean seed treatment trial: SCN cysts on roots", "settings": "Table 11"}, "[4]": {"settings": "Table 50, esterases, n=32, dose per treatment in U/mL Diet"}},
  "data": [
    {"molecule": "Akanthomyces lecanii Acidic Chitinase 1 (Chit1) (protein, listed as Akanthomyces lecanii, Acidic Chitinase 1 (Chit1-H195)) MAKCTSPDRKCPAPLIDAPINSFMTDGWADTDIHWEGDSWNDSGTNIYGCLKQLNILKKHNRNFKVLLSIGGWTYSSNFPAPASTPEGRDTFAKSCVELVKNLGFDGIDIDWEYPKTAEEAGHFVELLAEVRKQLDEYSARAANNYHFELSVACPAGPDNFQKLNISGMDAYLDFWNLMAYDYAGSWDKNSGHQANLYPCKDAPGCTPFSTVAAVDYYTSNGVSPDKLVLGMPLYGRAFENCDGIGQPFQGVGQGTWEQGVYDYKKLPLEGAEEHKDDDSCATYCHNAESRTLVTYDTPELAKTKADFIKERGLGGGMWWESSADKAGDDSLIQVVVSELGGPEALKQQQNCISYPETKYDNLRDGLPDN", "values": [
      {"measurement": "Dead Larva", "setting": "[1]; individuals of n = 32 after 7 days, mU/mL diet: SEQ 182 3.7, SEQ 185 0.6, water 1", "result": 2},
      {"measurement": "Early Pupa", "setting": "[1]; n = 32, doses as E97, water 0", "result": 8},
      {"measurement": "Larva Stage I", "setting": "[1]; n = 32, doses as E97, water 0", "result": 2},
      {"measurement": "Larva Stage II", "setting": "[1]; n = 32, doses as E97, water 0", "result": 2},
      {"measurement": "Adult", "setting": "[1]; n = 32, doses as E97, water 7", "result": 1},
      {"measurement": "Late Pupa", "setting": "[1]; n = 32, doses as E97, water 24", "result": 17},
      {"measurement": "Larva Stage I", "setting": "[2]; Table 48, chitinases, n = 32", "result": 4},
      {"measurement": "Larva Stage II", "setting": "[2]; Table 48, chitinases, n = 32", "result": 5},
      {"measurement": "Larva Stage III", "setting": "[2]; Table 48, chitinases, n = 32", "result": 8},
      {"measurement": "Larva Stage IV", "setting": "[2]; Table 48, chitinases, n = 32", "result": 8},
      {"measurement": "Dead Larva", "setting": "[2]; Table 48, chitinases, n = 32, dose per treatment in mU/mL Diet", "result": 7}
    ]},
    {"molecule": "Trichoderma lixii trypsin-like protease (protein, listed as Trichoderma lixii, H182 trypsin-like protease) AAITPRGSDIVGGTTAALGEFPYIVSLSTGGSHFCGGVLIDSRTVVTAGHCTIDQRASSVKVRAGTLTWASGGTQVGVSSLTLHPSYTVDSQGVPDNDVGVWHLATAIPTSSTIGYATLPASGSDPAAGTTLTVAGWGTTSENSNSLPSTLRKVSVPVVARATCDSDYDGEISNNMFCAAVAAGGKDSCSGDSGGPIIDPSGTLVGVVSWGQGCAERGFPGVYTRLGNYVSFINSNRG", "values": [
      {"measurement": "% Comparison to Control", "setting": "[3]; base control = 100%", "result": 26, "unit": "%"},
      {"measurement": "Average cysts per g of root tissue", "setting": "[3]; free enzyme seed treatment 2 fl oz/unit, soybean P18A98X, ILEVO 0.15 mg AI/seed, 3 weeks after inoculation, base control 71.4", "result": "18.6 cysts per g of root tissue"}
    ]},
    {"molecule": "H6-pnbA (SEQ ID NO: 94) (protein, listed as Bacillus subtilis, Esterase (pnbA)) MTHQIVTTQYGKVKGTTENGVHKWKGIPYAKPPVGQWRFKAPEPPEVWEDVLDATAYGSICPQPSDLLSLSYTELPRQSEDCLYVNVFAPDTPSKNLPVMVWIHGGAFYLGAGSEPLYDGSKLAAQGEVIVVTLNYRLGPFGFLHLSSFNEAYSDNLGLLDQAAALKWVRENISAFGGDPDNVTVFGESAGGMSIAALLAMPAAKGLFQKAIMESGASRTMTKEQAASTSAAFLQVLGINEGQLDKLHTVSAEDLLKAADQLRIAEKENIFQLFFQPALDPKTLPEEPEKAIAEGAASGIPLLIGTTRDEGYLFFTPDSDVHSQETLDAALEYLLGKPLAEKVADLYPRSLESQIHMMTDLLFWRPAVAYASAQSHYAPVWMYRFDWHPKKPPYNKAFHALELPFVFGNLDGLERMAKAEITDEVKQLSHTIQSAWITFAKTGNPSTEAVNWPAYHEETRETLILDSEITIENDPESEKRQKLFPSKGE", "values": [
      {"measurement": "Larva Stage I", "setting": "[2]; Table 50, esterases, n=32", "result": 0},
      {"measurement": "Larva Stage II", "setting": "[2]; Table 50, esterases, n=32", "result": 0},
      {"measurement": "Larva Stage III", "setting": "[2]; Table 50, esterases, n=32", "result": 15},
      {"measurement": "Larva Stage IV", "setting": "[2]; Table 50, esterases, n=32", "result": 17},
      {"measurement": "Dead Larva", "setting": "[2]; [4]", "result": 0}
    ]},
    {"molecule": "H6-pytH (SEQ ID NO: 95) (protein, listed as Sphingobium wenxiniae, Esterase (pytH)) MTVTDIILIHGALNRGACYDAVVPLLEARGYRVHAPDLTGHTPGDGGHLSVVDMEHYTRPVADILARAEGQSILLGHSLGGASISWLAQHHPDKVAGLIYLTAVLTAPGITPETFVLPGEPNRGTPHALDLIQPVDEGRGLQADFSRLERLREVFMGDYPGEGMPPAEQFIQTQSTVPFGTPNPMEGRALEIPRLYIEALDDVVIPIAVQRQMQKEFPGPVAVVSLPASHAPYYSMPERLAEAIADFADAPAEYRQTATKAGPDRPAGADGGRADRADLP", "values": [
      {"measurement": "Larva Stage I", "setting": "[2]; Table 50, esterases, n=32", "result": 0},
      {"measurement": "Larva Stage II", "setting": "[2]; Table 50, esterases, n=32", "result": 0},
      {"measurement": "Larva Stage III", "setting": "[2]; Table 50, esterases, n=32", "result": 13},
      {"measurement": "Larva Stage IV", "setting": "[2]; Table 50, esterases, n=32", "result": 19},
      {"measurement": "Dead Larva", "setting": "[2]; [4]", "result": 0}
    ]}
  ]
}
